Experimental data reported in the supplement of paper PMC9112550, “Optimization of the antimicrobial peptide Bac7 by deep mutational scanning” (BMC Biology, 2022).

Each sequence was assayed on Escherichia coli TOP10 (assay: shrunken log2 fold change of peptide-encoding DNA abundance (4.5 h post-induction vs induction); higher = less antimicrobial activity (less host growth inhibition)). Settings: time post-induction: 4.5 h; library: site-saturation at positions 5, 18, 19, 20.
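Note: peptides expressed intracellularly from a pBAD plasmid library in pooled LB shake-flask culture, induced with 0.3% L-arabinose, DNA abundance read by NGS, three biological replicates, DESeq2 with apeglm shrinkage.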

Going from RRIRCRPPRLPRPRPRPCVDPRP to RRIRRRPPRLPRPRPRPEENPRP, the “shrunken log2 fold change” value rises from -0.164 to 0.157.

First: RRIRLRPPRLPRPRPRPAEPPRP
Second: RRIRFRPPRLPRPRPRPMNRPRP
The “shrunken log2 fold change” value of the first is higher: 0.188 for the first, -0.0364 for the second.

RRIRMRPPRLPRPRPRPWVYPRP and RRIRTRPPRLPRPRPRPFKPPRP are within 0.2 log units of each other in “shrunken log2 fold change” value: -0.0124 for the first, -0.0194 for the second.

Going from RRIRQRPPRLPRPRPRPCCVPRP to RRIRGRPPRLPRPRPRPLEQPRP, the “shrunken log2 fold change” value rises from 0.115 to 0.435.

RRIRIRPPRLPRPRPRPCQKPRP and RRIRKRPPRLPRPRPRPMDSPRP are within 0.2 log units of each other in “shrunken log2 fold change” value: -0.0157 for the first, -0.0874 for the second.

First: RRIRERPPRLPRPRPRPYYFPRP
Second: RRIRRRPPRLPRPRPRPYVHPRP
The “shrunken log2 fold change” value of the first is lower: -1.04 for the first, -0.356 for the second.

Going from RRIRCRPPRLPRPRPRPSYFPRP to RRIRFRPPRLPRPRPRPIKLPRP, the “shrunken log2 fold change” value falls from -0.193 to -0.825.

RRIRKRPPRLPRPRPRPNVGPRP and RRIRPRPPRLPRPRPRPEFPPRP are within 0.2 log units of each other in “shrunken log2 fold change” value: -0.0151 for the first, -0.00714 for the second.

Going from RRIRIRPPRLPRPRPRPARVPRP to RRIRWRPPRLPRPRPRPPTPPRP, the “shrunken log2 fold change” value rises from -0.0658 to 1.4.

First: RRIRCRPPRLPRPRPRPFEYPRP
Second: RRIRYRPPRLPRPRPRPEHWPRP
The “shrunken log2 fold change” value of the first is lower: -0.548 for the first, -0.0026 for the second.

RRIRPRPPRLPRPRPRPRRKPRP and RRIRNRPPRLPRPRPRPWMSPRP are within 0.2 log units of each other in “shrunken log2 fold change” value: 0.166 for the first, -0.0131 for the second.

Going from RRIRRRPPRLPRPRPRPDCFPRP to RRIRYRPPRLPRPRPRPKIAPRP, the “shrunken log2 fold change” value falls from 0.681 to -0.404.

First: RRIRPRPPRLPRPRPRPSLQPRP
Second: RRIRTRPPRLPRPRPRPRYHPRP
The “shrunken log2 fold change” value of the first is higher: 0.0128 for the first, -0.573 for the second.

RRIRQRPPRLPRPRPRPLQPPRP and RRIRLRPPRLPRPRPRPGWSPRP are within 0.2 log units of each other in “shrunken log2 fold change” value: -0.0373 for the first, 0.0496 for the second.

Going from RRIRDRPPRLPRPRPRPNKGPRP to RRIRMRPPRLPRPRPRPIMRPRP, the “shrunken log2 fold change” value rises from -0.00129 to 0.537.

First: RRIRDRPPRLPRPRPRPCDDPRP
Second: RRIRNRPPRLPRPRPRPRRSPRP
The “shrunken log2 fold change” value of the first is lower: 0.0345 for the first, 0.428 for the second.

First: RRIRARPPRLPRPRPRPVLTPRP
Second: RRIRFRPPRLPRPRPRPAVKPRP
The “shrunken log2 fold change” value of the first is higher: 0.384 for the first, -0.137 for the second.

Going from RRIRIRPPRLPRPRPRPSSKPRP to RRIRPRPPRLPRPRPRPEWIPRP, the “shrunken log2 fold change” value rises from -0.599 to -0.0215.

Compared with RRIRFRPPRLPRPRPRPCNYPRP, RRIRPRPPRLPRPRPRPKRRPRP is higher in “shrunken log2 fold change” value: -0.72 for the first, -0.093 for the second.

RRIRFRPPRLPRPRPRPMLWPRP and RRIRFRPPRLPRPRPRPKEMPRP are within 0.2 log units of each other in “shrunken log2 fold change” value: 0.165 for the first, -0.0141 for the second.

RRIRRRPPRLPRPRPRPCHCPRP and RRIRQRPPRLPRPRPRPGSIPRP are within 0.2 log units of each other in “shrunken log2 fold change” value: -0.0688 for the first, -0.218 for the second.

Going from RRIRKRPPRLPRPRPRPAQGPRP to RRIRGRPPRLPRPRPRPIPSPRP, the “shrunken log2 fold change” value falls from 1.39 to 0.485.

Compared with RRIRARPPRLPRPRPRPTIRPRP, RRIRSRPPRLPRPRPRPPFIPRP is lower in “shrunken log2 fold change” value: 0.109 for the first, -0.252 for the second.

First: RRIRARPPRLPRPRPRPELRPRP
Second: RRIRGRPPRLPRPRPRPFDFPRP
The “shrunken log2 fold change” value of the first is higher: 1.14 for the first, 0.26 for the second.

RRIRRRPPRLPRPRPRPYTGPRP and RRIRNRPPRLPRPRPRPSGAPRP are within 0.2 log units of each other in “shrunken log2 fold change” value: -0.126 for the first, -0.0216 for the second.

RRIRMRPPRLPRPRPRPWCLPRP and RRIRHRPPRLPRPRPRPYIVPRP are within 0.2 log units of each other in “shrunken log2 fold change” value: -0.208 for the first, -0.191 for the second.

Compared with RRIRKRPPRLPRPRPRPWNEPRP, RRIRWRPPRLPRPRPRPWVGPRP is higher in “shrunken log2 fold change” value: -0.0249 for the first, 0.207 for the second.

First: RRIRPRPPRLPRPRPRPAQPPRP
Second: RRIRHRPPRLPRPRPRPVCTPRP
The “shrunken log2 fold change” value of the first is higher: 0.732 for the first, -0.108 for the second.

Going from RRIRDRPPRLPRPRPRPKYLPRP to RRIRARPPRLPRPRPRPQRKPRP, the “shrunken log2 fold change” value rises from -0.131 to 0.365.

First: RRIRGRPPRLPRPRPRPTWNPRP
Second: RRIRCRPPRLPRPRPRPQCWPRP
The “shrunken log2 fold change” value of the first is higher: 0.359 for the first, 0.0604 for the second.

RRIRMRPPRLPRPRPRPANMPRP and RRIRMRPPRLPRPRPRPWLLPRP are within 0.2 log units of each other in “shrunken log2 fold change” value: -0.203 for the first, -0.0297 for the second.

RRIRSRPPRLPRPRPRPNQTPRP and RRIRTRPPRLPRPRPRPQEPPRP are within 0.2 log units of each other in “shrunken log2 fold change” value: 0.0606 for the first, -0.0583 for the second.

Compared with RRIRPRPPRLPRPRPRPYPEPRP, RRIRCRPPRLPRPRPRPCMSPRP is higher in “shrunken log2 fold change” value: -0.421 for the first, -0.185 for the second.

Going from RRIRYRPPRLPRPRPRPFWPPRP to RRIRPRPPRLPRPRPRPDWMPRP, the “shrunken log2 fold change” value falls from 0.0953 to -0.212.

RRIRCRPPRLPRPRPRPPIHPRP and RRIRTRPPRLPRPRPRPWFVPRP are within 0.2 log units of each other in “shrunken log2 fold change” value: -0.248 for the first, -0.243 for the second.

First: RRIRTRPPRLPRPRPRPVFMPRP
Second: RRIRFRPPRLPRPRPRPQENPRP
The “shrunken log2 fold change” value of the first is lower: -0.25 for the first, 0.133 for the second.

Compared with RRIRHRPPRLPRPRPRPSSYPRP, RRIRERPPRLPRPRPRPFTFPRP is higher in “shrunken log2 fold change” value: -0.649 for the first, -0.275 for the second.

First: RRIRYRPPRLPRPRPRPQNEPRP
Second: RRIRQRPPRLPRPRPRPGQAPRP
The “shrunken log2 fold change” value of the first is lower: -0.483 for the first, 0.0026 for the second.

Going from RRIRTRPPRLPRPRPRPSACPRP to RRIRCRPPRLPRPRPRPAGAPRP, the “shrunken log2 fold change” value rises from -0.277 to 0.417.

RRIRERPPRLPRPRPRPSEEPRP and RRIRYRPPRLPRPRPRPWAEPRP are within 0.2 log units of each other in “shrunken log2 fold change” value: -0.0988 for the first, 0.0276 for the second.

First: RRIRFRPPRLPRPRPRPGIHPRP
Second: RRIRMRPPRLPRPRPRPSQSPRP
The “shrunken log2 fold change” value of the first is lower: -0.0365 for the first, 0.53 for the second.

Going from RRIRFRPPRLPRPRPRPRSNPRP to RRIRKRPPRLPRPRPRPYQKPRP, the “shrunken log2 fold change” value rises from -0.336 to -0.00762.

First: RRIRMRPPRLPRPRPRPRYGPRP
Second: RRIRIRPPRLPRPRPRPCYGPRP
The “shrunken log2 fold change” value of the first is higher: 0.0305 for the first, -0.202 for the second.

RRIRLRPPRLPRPRPRPGKCPRP and RRIRNRPPRLPRPRPRPWVYPRP are within 0.2 log units of each other in “shrunken log2 fold change” value: -0.073 for the first, -0.0702 for the second.

RRIRMRPPRLPRPRPRPVIGPRP and RRIRPRPPRLPRPRPRPMDDPRP are within 0.2 log units of each other in “shrunken log2 fold change” value: -0.0424 for the first, 0.00641 for the second.

For RRIRARPPRLPRPRPRPGYWPRP, the “shrunken log2 fold change” value was 0.363.
